For orientation: Kd means a measure of binding affinity in units of concentration. For orientation: koff means a measure of how fast the partners let go of each other. In general, kon refers to the rate constant with which the complex forms.

The labels stand for the following.
B1: HuMab 017 (antibody of cell line hu-Mab<P-selectin>LC 1004-017, DSM ACC2642) (antibody, V domains shown)
VH: QPQLVQSGAEVKKPGASVKVSCKVSGNTLTELSMHWVRQAPGKGLEWMGGFDPENGEAIYAQKFQGRVTMTADTSTDTAYMDLSSLRSEDTAVYYCATDLAGGSDFYYYGLDVWGQGTTVTVSS
VL: AIQLTQSPSSLSASVGDRVTITCRASQGISSALAWYQQKPGKAPKLLIYDASSLESGVPSRFSGSGSGTDFTLTISSLQPEDFATYYCQQFNSYPYTFGQGTKLEIK
notes: Human monoclonal antibody; also called antibody 017
B2: HuMab 001 (antibody of cell line hu-Mab<P-selectin>LC 1004-001, DSM ACC2640) (antibody, V domains shown)
VH: EVQLVESGGGLVQPGGSLRLSCAASGFTFSSYDMHWVRQATGKGLEWVSGITTAGDTYYPGSVKGRFTISRENAKNSLYLQMNSLRAGDTAVYYCARGRISMDRGVKNNWFDPWGQGTLVTVSS
VL: EIVLTQSPATLSLSPGERATLSCRASQSVSSYLAWYQQKPGQAPRLLIYDASNRATGIPARFSGSGSGTDFTLTISSLEPEDFAVYYCQQRNNWPLTFGGGTKVEIK
notes: Human monoclonal antibody from transgenic mice; kappa light and gamma1 heavy chains by the cloning section; also called antibody 001; HuMab 1004-001
B3: HuMab 003 (antibody, V domains shown)
VH: QVQLVESGGGVVQPGRSLRLSCAASGFTFSSYGMHWVRQAPGEGLEWVAVIWYDGTFKYYADSVKGRFTISRDNSKNTLSLLMNSLRAEDTAVYYCTRGGYYGSGSSFDYYYYGMDVWGQGTTVTVSS
VL: DIQMTQSPSSLSASVGDRVTITCRASQGISSWLAWYQQKPEKAPKSLIYAASSLQSGVPSRFSGSGSGTDFTLTISSLQPEDFATYYCQQYHSYPLTFGGGTKVEIK
notes: Human monoclonal antibody; also called antibody 003; LC 1004-003
B4: HuMab 005 (antibody, V domains shown)
VH: QVQLVESGGGVVQPGRSLRLSCAASGFTFSSYGMHWVRQAPGEGLEWVAVIWYDGTFKYYADSVKGRFTISRDNSKNTLSLLMNSLRAEDTAVYYCTRGGYYGSGSSFDYYYYGMDVWGQGTTVTVSS
VL: EIVLTQSPATLSLSPGERATLSCRASQSVSSYLAWYQQKPGQAPRLLIYDASNRATGIPARFSGSGSGTDFTLTISSLEPEDFAVYYCQQRSNWPPVTFGQGTRLEIK
notes: Human monoclonal antibody; also called antibody 005

For the assay, the target named is T1, Recombinant P-selectin (R&D Systems) (human, UniProt P16109 42-771).
T1 construct: extracellular domain; also called recombinant human P-selectin; recombinant truncated form of P-selectin
T1 sequence (looked up): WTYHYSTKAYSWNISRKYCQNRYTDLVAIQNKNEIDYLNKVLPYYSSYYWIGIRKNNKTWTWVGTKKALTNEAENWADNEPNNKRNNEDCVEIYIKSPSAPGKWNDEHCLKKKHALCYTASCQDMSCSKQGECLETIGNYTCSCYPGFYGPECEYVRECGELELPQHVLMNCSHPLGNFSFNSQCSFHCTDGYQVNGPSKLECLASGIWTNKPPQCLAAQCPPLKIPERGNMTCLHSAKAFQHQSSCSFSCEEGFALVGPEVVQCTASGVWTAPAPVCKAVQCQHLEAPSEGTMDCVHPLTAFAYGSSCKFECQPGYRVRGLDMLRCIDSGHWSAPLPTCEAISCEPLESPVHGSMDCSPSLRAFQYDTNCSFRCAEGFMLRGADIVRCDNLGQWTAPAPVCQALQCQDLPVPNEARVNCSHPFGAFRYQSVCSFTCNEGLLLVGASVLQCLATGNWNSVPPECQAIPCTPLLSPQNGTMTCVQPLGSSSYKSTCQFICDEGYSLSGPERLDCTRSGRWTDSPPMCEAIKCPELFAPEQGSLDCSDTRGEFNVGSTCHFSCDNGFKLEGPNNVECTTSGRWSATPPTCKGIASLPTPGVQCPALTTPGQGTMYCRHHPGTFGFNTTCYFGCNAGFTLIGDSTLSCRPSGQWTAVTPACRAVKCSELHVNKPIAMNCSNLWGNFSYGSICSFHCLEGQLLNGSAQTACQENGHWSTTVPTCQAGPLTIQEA
As to the kind of experiment: SPR, BIACORE 2000; antibody captured by anti-human Fcγ, recombinant P-selectin 0-50 nM injected; 1:1 Langmuir fit. As for the experimental part: Recombinant P-selectin (R&D Systems) was added in various concentrations between 0-50 nM. Association was measured by P-selectin-injection for 120 seconds; dissociation was measured by washing the chip surface with buffer for 180 seconds. Using Biaevaluation Software the kinetic data were fitted to a 1:1 Langmuir binding model of P-selectin to the presented monoclonal antibody.
On the technique in general: SPR reads the build-up and loss of mass on a sensor chip optically.
Consider B1, for which the Ka is 5.59e+10 M⁻¹, the Kd was found to be 0.0179 nM, the koff was 1.39e-05 s⁻¹ and the kon worked out at 779000 M⁻¹ s⁻¹.
In the case of B2, the Ka came to 1.45e+09 M⁻¹, the Kd turned out to be 0.689 nM, the koff turned out to be 0.000419 s⁻¹ and the kon turned out to be 608000 M⁻¹ s⁻¹.
Turning to B3, the Ka is 2.27e+09 M⁻¹, the Kd came out at 0.441 nM, the koff turned out to be 0.000291 s⁻¹ and the kon was 660000 M⁻¹ s⁻¹.
Take B4: the Ka came to 2.91e+09 M⁻¹, the Kd worked out at 0.343 nM, the koff turned out to be 0.000289 s⁻¹ and the kon stood at 842000 M⁻¹ s⁻¹.

The values are drawn from patent publication US20050226876A1 (Hoffmann-La Roche, published 2005).
